These results are taken from patent US20140087995A1 (published 2014).

Assay [1] deals with T1, rat amylin receptor (rat calcitonin receptor + rat RAMP 3) (rat, UniProt P32214 25-516; Q9JJ73 23-147).
T1 construct: whole, on cells; Used as membranes prepared from the transfected cells; also called rAmylin-R; rat amylin 3(a) receptor
T1 sequence (looked up) 1: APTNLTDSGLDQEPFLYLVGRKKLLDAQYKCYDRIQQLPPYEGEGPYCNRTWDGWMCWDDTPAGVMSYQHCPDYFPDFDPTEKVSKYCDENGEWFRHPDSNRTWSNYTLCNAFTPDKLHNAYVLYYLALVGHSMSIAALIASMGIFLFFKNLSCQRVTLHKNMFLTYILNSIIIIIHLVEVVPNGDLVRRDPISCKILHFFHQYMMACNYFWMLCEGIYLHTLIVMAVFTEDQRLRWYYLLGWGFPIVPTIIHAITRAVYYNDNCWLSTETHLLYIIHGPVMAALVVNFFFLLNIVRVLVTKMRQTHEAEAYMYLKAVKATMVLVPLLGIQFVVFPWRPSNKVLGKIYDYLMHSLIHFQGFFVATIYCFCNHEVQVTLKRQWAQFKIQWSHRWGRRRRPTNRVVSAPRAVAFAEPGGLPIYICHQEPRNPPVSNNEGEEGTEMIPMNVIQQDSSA
T1 sequence (looked up) 2: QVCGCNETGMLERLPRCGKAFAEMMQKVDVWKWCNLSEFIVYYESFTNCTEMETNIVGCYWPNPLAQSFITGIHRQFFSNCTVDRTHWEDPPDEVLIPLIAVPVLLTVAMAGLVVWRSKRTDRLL
In words: SPA competition with 125I-rat amylin, membranes of BHK cells with rat calcitonin receptor + rat RAMP3 (Assay VI).

Assay [2] addresses T2, rat calcitonin receptor (rat, UniProt P32214 25-516).
T2 construct: whole, on cells; Used as membranes prepared from the transfected cells; also called rCTR; rat calcitonin (a) receptor
T2 sequence (looked up): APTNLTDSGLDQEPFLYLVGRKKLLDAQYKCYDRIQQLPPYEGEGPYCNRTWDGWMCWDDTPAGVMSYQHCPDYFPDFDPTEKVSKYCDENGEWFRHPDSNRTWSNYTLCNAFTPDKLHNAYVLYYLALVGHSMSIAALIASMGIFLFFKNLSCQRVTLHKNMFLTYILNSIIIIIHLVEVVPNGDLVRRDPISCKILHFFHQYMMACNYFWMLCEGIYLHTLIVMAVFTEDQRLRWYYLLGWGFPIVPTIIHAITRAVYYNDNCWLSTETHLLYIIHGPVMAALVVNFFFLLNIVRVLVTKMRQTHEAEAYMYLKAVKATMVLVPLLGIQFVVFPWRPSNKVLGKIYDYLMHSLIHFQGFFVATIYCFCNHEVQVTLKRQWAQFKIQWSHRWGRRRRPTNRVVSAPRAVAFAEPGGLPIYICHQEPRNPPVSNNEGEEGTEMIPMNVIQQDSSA
Kind of assay: ratio IC50 rat calcitonin receptor / IC50 rat amylin receptor (Assays VIII and VI).

Assay [3] has as its target T3, human calcitonin receptor (human, UniProt P30988 25-474).
T3 construct: whole, on cells; Used as membranes prepared from the transfected cells (Assay VII); also called hCTR; hCT
T3 sequence (looked up): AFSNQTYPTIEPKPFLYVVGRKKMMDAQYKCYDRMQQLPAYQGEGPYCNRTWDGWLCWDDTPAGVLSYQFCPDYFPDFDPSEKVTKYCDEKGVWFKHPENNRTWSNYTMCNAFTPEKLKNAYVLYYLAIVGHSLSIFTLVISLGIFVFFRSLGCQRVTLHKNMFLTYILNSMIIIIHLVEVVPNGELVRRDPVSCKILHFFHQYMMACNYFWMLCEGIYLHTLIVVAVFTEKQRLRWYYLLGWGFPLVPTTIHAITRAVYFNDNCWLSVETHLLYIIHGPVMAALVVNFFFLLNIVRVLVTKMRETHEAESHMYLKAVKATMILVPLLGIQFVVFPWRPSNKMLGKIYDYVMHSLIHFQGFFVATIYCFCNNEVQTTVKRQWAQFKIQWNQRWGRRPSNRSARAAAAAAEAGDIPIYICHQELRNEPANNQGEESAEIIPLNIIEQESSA
In words: ratio IC50 human calcitonin receptor / IC50 human amylin receptor (Assays VII and V). On the procedure:
The resulting pellet was resuspended, homogenized and centrifuged (20.000 rpm, 15 min) in a buffer containing 20 mM Na-HEPES and 0.1 mM EDTA (pH 7.4, buffer 2). The resulting pellet was resuspended in buffer 2 and protein concentration was measured (BCA protein Assay, Pierce). The homogenate was kept cold during the whole procedure. The membranes were kept at −80° C. until use. The assay was performed in a 384 well Optiplate (PerkinElmer) in a total volume of 40 ul. Membranes were mixed with SPA beads. Final concentration of membranes 35 ng/μL final and SPA beads was 0.05 mg/well. Test-compounds were dissolved in DMSO and further diluted in assay buffer (50 mM Hepes, pH 7.4, 1 mM CaCl2, 5 mM MgCl₂, 0.1% OA and 0.02% Tween20). […] The final mixture was incubated with shaking at 400 rpm for 120 min at 25° C. prior to centrifugation (1500 rpm, 10 min). Samples were analyzed on TopCounter™ (Packard). The IC₅₀ was calculated using (one site binding competition analysis) GraphPad Prism5 as a measure of receptor affinity.
Membranes were prepared in the following way; the cells were rinsed with PBS and incubated with Versene for approximately 5 min before harvesting. The cells were flushed with PBS and the cell-suspension was centrifuged for 5 min at 1000 rpm. Cells were homogenized (Ultrathurrax) in a buffer containing 20 mM Na-HEPES and 10 mM EDTA (pH 7.4) and centrifuged at 20.000 rpm for 15 min. The resulting pellet was resuspended, homogenized and centrifuged (20.000 rpm, 15 min) in a buffer containing 20 mM Na-HEPES and 0.1 mM EDTA (pH 7.4, buffer 2). The resulting pellet was resuspended in buffer 2 and protein concentration was measured (BCA protein Assay, Pierce). The homogenate was kept cold during the whole procedure. The membranes were kept at −80° C. until use. Assay was performed in a 384 well Optiplate (PerkinElmer) in a total volume of 40 ul. Membranes were mixed with SPA beads.

Assay [4] concerns the target T2, rat calcitonin receptor. In words: SPA competition with 125I-calcitonin, membranes of BHK cells with rat calcitonin receptor (Assay VIII).

B1: N^α1-[2-[2-[2-[[2-[2-[2-[[(4S)-4-carboxy-4-(19-carboxynonadecanoylamino)butanoyl]amino]ethoxy]ethoxy]acetyl]amino]ethoxy]ethoxy]acetyl]-[Glu14,Arg17,Pro21,Pro27 … (peptide)
peptide: KCNTATCATQRLAEFLRHSSPNFGAIPSSTNVGSNTY
modifications: C20 diacid-gGlu-2xOEG acylated on the alpha amino group of the N-terminal residue (Lys 1); disulfide Cys2-Cys7; C-terminal amide
notes: Derivative of human amylin; also called compound 19
Regarding B1, the IC50 in assay [1] came out at 1.02 nM; with rat calcitonin receptor [4], 95.6 nM. The “Ratio rCT/rAmylin binding” value with rat calcitonin receptor [2] stood at 93.6. Also, in assay [3], the “Ratio hCT/hAmylin binding” value stood at 36.7.

B2: N^α1-[(4S)-4-carboxy-4-(19-carboxynonadecanoylamino)butanoyl]-[Arg17,Pro21,Pro27,Glu35]-h-amylin (peptide)
peptide: KCNTATCATQRLANFLRHSSPNFGAIPSSTNVGSETY
modifications: C20 diacid-gGlu acylated on the alpha amino group of the N-terminal residue (Lys 1); disulfide Cys2-Cys7; C-terminal amide
notes: Derivative of human amylin; also called compound 23
For B2, the IC50 is 1.12 nM in assay [1] and 79.9 nM in the assay with rat calcitonin receptor [4]. Moreover, the “Ratio rCT/rAmylin binding” value in the assay with rat calcitonin receptor [2] was found to be 71.3. In addition, the “Ratio hCT/hAmylin binding” value in assay [3] was 25.

B3: N^α1-[(4S)-4-carboxy-4-(19-carboxynonadecanoylamino)butanoyl]-[Arg17,Pro21,Pro27,His34]-h-amylin (peptide)
peptide: KCNTATCATQRLANFLRHSSPNFGAIPSSTNVGHNTY
modifications: C20 diacid-gGlu acylated on the alpha amino group of the N-terminal residue (Lys 1); disulfide Cys2-Cys7; C-terminal amide
notes: Derivative of human amylin; also called compound 40
With B3, the IC50 is 1.5 nM in assay [1] and 69.2 nM with rat calcitonin receptor [4]. In the assay with rat calcitonin receptor [2], the “Ratio rCT/rAmylin binding” value came out at 46.2. Further, the “Ratio hCT/hAmylin binding” value in assay [3] was determined as 31.1.

B4: N^α1-[(4S)-4-carboxy-4-(19-carboxynonadecanoylamino)butanoyl]-[Arg17,Pro21,Pro27,Lys35]-h-amylin (peptide)
peptide: KCNTATCATQRLANFLRHSSPNFGAIPSSTNVGSKTY
modifications: C20 diacid-gGlu acylated on the alpha amino group of the N-terminal residue (Lys 1); disulfide Cys2-Cys7; C-terminal amide
notes: Derivative of human amylin; also called compound 34
Turning to B4, the IC50 in assay [1] stood at 1.72 nM; in the assay with rat calcitonin receptor [4] it was 89.2 nM. For the same molecule, the “Ratio rCT/rAmylin binding” value in the assay with rat calcitonin receptor [2] came out at 52. Besides, the “Ratio hCT/hAmylin binding” value in assay [3] amounted to 64.4.
